Data from patent US20260242419A1, “A CYCLIC PEPTIDE FOR TRAPPING INTERLEUKIN-1 BETA” (Merck Sharp & Dohme LLC, priority 2023, published 2026).
Starred links: 1 amine or outer side, 2 acyl side, 3 side chain; linkers in the order of their positions; H or OH if unused. Non-standard residues stand in square brackets, D forms with d. Bip4CONMe2 = (2S)-2-amino-3-[4-[4-(dimethylcarbamoyl)phenyl]phenyl]propanoic acid, CN(C)C(=O)c1ccc(-c2ccc(C[C@H](N[*:1])C(=O)[*:2])cc2)cc1; TyrEtNAc = (2S)-3-[4-(2-acetamidoethoxy)phenyl]-2-amino-propanoic acid, CC(=O)NCCOc1ccc(C[C@H](N[*:1])C(=O)[*:2])cc1; Phe3Cl4COOH = (S)-4-(2-amino-2-carboxyethyl)-2-chlorobenzoic acid, O=C([C@H](Cc1ccc(C(=O)[*:3])c(Cl)c1)N[*:1])[*:2]; 4PyrimAla = (2S)-2-amino-3-pyrimidin-4-yl-propanoic acid, O=C([C@H](Cc1ccncn1)N[*:1])[*:2]; Phe4pcCCA = (1R,4s)-4-(4-((S)-2-amino-2-carboxyethyl)phenyl)cyclohexane-1-carboxylic acid; Phe(4-(5-CO2H-2-pyrimidyl)) = N[C@@H](Cc1ccc(-c2ncc(C(=O)O)cn2)cc1)C(=O)O; Phe(4-(4-Ac-piperazinyl)) = CC(=O)N1CCN(c2ccc(C[C@H](N)C(=O)O)cc2)CC1; Trp(4-Cl)(βS-Me) = C[C@@H](c1c[nH]c2cccc(Cl)c12)[C@H](N)C(=O)O; dPro(4R-(4-pyridylmethyl)) = O=C(O)[C@H]1C[C@@H](Cc2ccncc2)CN1; Trp(βS-Me,4-F) = C[C@@H](c1c[nH]c2cccc(F)c12)[C@H](N)C(=O)O; Bip(4'-CONH2) = NC(=O)c1ccc(-c2ccc(C[C@H](N)C(=O)O)cc2)cc1; Bip(4'-COOH) = N[C@@H](Cc1ccc(-c2ccc(C(=O)O)cc2)cc1)C(=O)O; Ala(1-bicyclo(1.1.1)pentyl) = N[C@@H](CC12CC(C1)C2)C(=O)O; dPro(4R-Bzl(4-F)) = O=C(O)[C@H]1C[C@@H](Cc2ccc(F)cc2)CN1; dPro(3S-(4-F-Bn)) = O=C(O)[C@@H]1NCC[C@@H]1Cc1ccc(F)cc1; Phe(2-Cl,4-COOH) = N[C@@H](Cc1ccc(C(=O)O)cc1Cl)C(=O)O; Bip(4'-Cl) = N[C@@H](Cc1ccc(-c2ccc(Cl)cc2)cc1)C(=O)O; 1Nal(3S-Me) = C[C@@H](c1cccc2ccccc12)[C@H](N)C(=O)O; Ala(pyrimidin-5-yl) = N[C@@H](Cc1cncnc1)C(=O)O; Phe(4-COOH) = N[C@@H](Cc1ccc(C(=O)O)cc1)C(=O)O; Bip = N[C@@H](Cc1ccc(-c2ccccc2)cc1)C(=O)O; Pro(cis-4-F) = O=C(O)[C@@H]1C[C@H](F)CN1; Ala(4-THP) = N[C@@H](CC1CCOCC1)C(=O)O; d(αMeD) = C[C@@](N)(CC(=O)O)C(=O)O; 4Pal = N[C@@H](Cc1ccncc1)C(=O)O; aThr = C[C@H](O)[C@H](N)C(=O)O; d(αMeS) = C[C@@](N)(CO)C(=O)O; Cba = N[C@@H](CC1CCC1)C(=O)O; Dab = NCC[C@H](N)C(=O)O; Aib = CC(C)(N)C(=O)O; Sar = CNCC(=O)O

Biological target: Recombinant human IL-1β (BioLegend 579404) (human, UniProt P01584 117-269)
Experiment: cell-based or functional assay

First: cyclo([Bip(4'-COOH)][4Pal][Phe(2-Cl,4-COOH)]G[Pro(cis-4-F)][1Nal(3S-Me)][Aib]SW[d(αMeD)][aThr]Q[Dab]G[dPro(4R-(4-pyridylmethyl))]) (ring closure inferred) [SEQ ID NO 354]
Second: cyclo([Bip(4'-COOH)][4Pal][Phe(4-COOH)]G[Pro(cis-4-F)][Trp(βS-Me,4-F)][Aib]SW[d(αMeS)]LQ[Dab]G[dPro(4R-(4-pyridylmethyl))]) (ring closure inferred) [SEQ ID NO 347]
The “MRC5 IC50” value of the first is 1.8-fold lower: 0.014 nM for the first, 0.025 nM for the second.

cyclo([TyrEtNAc][4Pal][Phe(4-COOH)]G[Pro(cis-4-F)][Trp(βS-Me,4-F)][Aib]EW[Aib]FQ[Dab]G[dPro(4R-(4-pyridylmethyl))]) (ring closure inferred) [SEQ ID NO 336] and cyclo([Bip][Ala(1-bicyclo(1.1.1)pentyl)][Phe(4-COOH)]G[Pro(cis-4-F)][Trp(βS-Me,4-F)][Aib]SW[d(αMeD)][Ala(pyrimidin-5-yl)]Q[Dab]G[dPro(4R-(4-pyridylmethyl))]) (ring closure inferred) [SEQ ID NO 343] are within 1.5-fold of each other in “MRC5 IC50” value: 0.023 nM for the first, 0.026 nM for the second.

cyclo([Phe(4-(4-Ac-piperazinyl))][4Pal][Phe(4-COOH)]G[Pro(cis-4-F)][Trp(βS-Me,4-F)][Aib]SW[d(αMeS)][Ala(pyrimidin-5-yl)]Q[Dab]G[dPro(4R-(4-pyridylmethyl))]) (ring closure inferred) [SEQ ID NO 350] and cyclo([Phe(4-(5-CO2H-2-pyrimidyl))][4Pal][Phe(4-COOH)]G[Pro(cis-4-F)][Trp(βS-Me,4-F)][Aib]SW[d(αMeD)][Ala(4-THP)]Q[Dab]G[dPro(4R-(4-pyridylmethyl))]) (ring closure inferred) [SEQ ID NO 351] are within 1.5-fold of each other in “MRC5 IC50” value: 0.02 nM for the first, 0.016 nM for the second.

cyclo([Bip(4'-COOH)][4Pal][Phe(4-COOH)]G[Pro(cis-4-F)][1Nal(3S-Me)][Aib]SW[d(αMeD)][aThr]Q[Dab]G[dPro(4R-(4-pyridylmethyl))]) (ring closure inferred) [SEQ ID NO 357] and cyclo([Bip(4'-COOH)][4Pal][Phe(4-COOH)]G[Pro(cis-4-F)][Trp(βS-Me,4-F)][Aib]EW[Aib][4PyrimAla]Q[Dab]G[dPro(4R-Bzl(4-F))]) (ring closure inferred) [SEQ ID NO 345] are within 1.5-fold of each other in “MRC5 IC50” value: 0.017 nM for the first, 0.012 nM for the second.

cyclo([Bip(4'-CONH2)][4Pal][Phe(4-COOH)]G[Pro(cis-4-F)][Trp(βS-Me,4-F)][Aib]SW[d(αMeS)][Ala(pyrimidin-5-yl)]Q[Dab]G[dPro(4R-(4-pyridylmethyl))]) (ring closure inferred) [SEQ ID NO 339] and cyclo([Bip(4'-COOH)][4Pal][Phe(4-COOH)]G[Pro(cis-4-F)][Trp(βS-Me,4-F)][Aib][aThr]W[d(αMeS)][aThr]Q[Dab]G[dPro(4R-(4-pyridylmethyl))]) (ring closure inferred) [SEQ ID NO 352] are within 1.5-fold of each other in “MRC5 IC50” value: 0.024 nM for the first, 0.023 nM for the second.

cyclo([Bip(4'-COOH)][4Pal][Phe(2-Cl,4-COOH)]G[Pro(cis-4-F)][Trp(4-Cl)(βS-Me)][Aib]SW[d(αMeD)][aThr]Q[Dab]G[dPro(4R-(4-pyridylmethyl))]) (ring closure inferred) [SEQ ID NO 355] and cyclo([Bip(4'-COOH)][4Pal][Phe(4-COOH)]G[Pro(cis-4-F)][Trp(βS-Me,4-F)][Aib]EW[Aib][Ala(pyrimidin-5-yl)]Q[Dab]G[dPro(3S-(4-F-Bn))]) (ring closure inferred) [SEQ ID NO 346] are within 1.5-fold of each other in “MRC5 IC50” value: 0.013 nM for the first, 0.01 nM for the second.

cyclo([Bip(4'-COOH)][Ala(1-bicyclo(1.1.1)pentyl)][Phe(4-COOH)]G[Pro(cis-4-F)][Trp(βS-Me,4-F)][Aib]SW[d(αMeD)][Cba]Q[Dab]G[dPro(4R-(4-pyridylmethyl))]) (ring closure inferred) [SEQ ID NO 348] and cyclo([Bip(4'-COOH)][Ala(1-bicyclo(1.1.1)pentyl)][Phe(4-COOH)]G[Pro(cis-4-F)][Trp(βS-Me,4-F)][Aib]SW[d(αMeD)]LQ[Dab]G[dPro(4R-(4-pyridylmethyl))]) (ring closure inferred) [SEQ ID NO 349] are within 1.5-fold of each other in “MRC5 IC50” value: 0.018 nM for the first, 0.017 nM for the second.

Compared with cyclo([Bip4CONMe2][Ala(1-bicyclo(1.1.1)pentyl)][Phe(4-COOH)]G[Pro(cis-4-F)][Trp(βS-Me,4-F)][Aib]SW[d(αMeD)][Ala(pyrimidin-5-yl)]Q[Dab]G[dPro(4R-(4-pyridylmethyl))]) (ring closure inferred) [SEQ ID NO 341], cyclo([Bip(4'-COOH)][4Pal][Phe(2-Cl,4-COOH)]G[Pro(cis-4-F)][Trp(βS-Me,4-F)][Aib]SW[d(αMeD)][aThr]Q[Dab]G[dPro(4R-(4-pyridylmethyl))]) (ring closure inferred) [SEQ ID NO 356] is 2.2-fold lower in “MRC5 IC50” value: 0.024 nM for the first, 0.011 nM for the second.

cyclo([Phe(4-(5-CO2H-2-pyrimidyl))][4Pal][Phe3Cl4COOH]G[Pro(cis-4-F)][Trp(βS-Me,4-F)][Aib]SW[d(αMeD)][Ala(4-THP)]Q[Dab]G[dPro(4R-(4-pyridylmethyl))]) (ring closure inferred) [SEQ ID NO 361] and cyclo([Bip(4'-Cl)][4Pal][Phe(4-COOH)]G[Pro(cis-4-F)][Trp(βS-Me,4-F)][Aib]SW[d(αMeD)][Ala(pyrimidin-5-yl)]Q[Dab]G[dPro(4R-(4-pyridylmethyl))]) (ring closure inferred) [SEQ ID NO 344] are the same in “MRC5 IC50” value: 0.022 nM for the first, 0.022 nM for the second.

cyclo([Bip4CONMe2][4Pal][Phe(4-COOH)]G[Pro(cis-4-F)][Trp(βS-Me,4-F)][Aib]SW[d(αMeS)][Ala(pyrimidin-5-yl)]Q[Dab]G[dPro(4R-(4-pyridylmethyl))]) (ring closure inferred) [SEQ ID NO 338] and cyclo([Bip][4Pal][Phe(4-COOH)]G[Pro(cis-4-F)][Trp(βS-Me,4-F)][Aib]SW[d(αMeS)][Ala(pyrimidin-5-yl)]Q[Dab]G[dPro(4R-(4-pyridylmethyl))]) (ring closure inferred) [SEQ ID NO 340] are within 1.5-fold of each other in “MRC5 IC50” value: 0.018 nM for the first, 0.021 nM for the second.

Going from cyclo([Bip(4'-COOH)][4Pal][Phe(4-COOH)]G[Pro(cis-4-F)][Trp(βS-Me,4-F)][Aib]SW[d(αMeD)][aThr]Q[Dab][Sar][dPro(4R-(4-pyridylmethyl))]) (ring closure inferred) [SEQ ID NO 337] to cyclo([Bip(4'-COOH)][4Pal][Phe(4-COOH)]G[Pro(cis-4-F)][Trp(4-Cl)(βS-Me)][Aib]SW[d(αMeD)][aThr]Q[Dab]G[dPro(4R-(4-pyridylmethyl))]) (ring closure inferred) [SEQ ID NO 358], the “MRC5 IC50” value falls from 0.022 nM to 0.013 nM (1.7-fold).

cyclo([Bip(4'-CONH2)][Ala(1-bicyclo(1.1.1)pentyl)][Phe(4-COOH)]G[Pro(cis-4-F)][Trp(βS-Me,4-F)][Aib]SW[d(αMeD)][Ala(pyrimidin-5-yl)]Q[Dab]G[dPro(4R-(4-pyridylmethyl))]) (ring closure inferred) [SEQ ID NO 342] and cyclo([Bip(4'-COOH)][4Pal][Phe(4-COOH)]G[Pro(cis-4-F)][Trp(βS-Me,4-F)][Aib][aThr]W[d(αMeD)][Ala(4-THP)]Q[Dab]G[dPro(4R-(4-pyridylmethyl))]) (ring closure inferred) [SEQ ID NO 353] are within 1.5-fold of each other in “MRC5 IC50” value: 0.022 nM for the first, 0.017 nM for the second.

cyclo([Phe(4-(5-CO2H-2-pyrimidyl))][4Pal][Phe(2-Cl,4-COOH)]G[Pro(cis-4-F)][1Nal(3S-Me)][Aib]SW[d(αMeD)][Ala(4-THP)]Q[Dab]G[dPro(4R-(4-pyridylmethyl))]) (ring closure inferred) [SEQ ID NO 360] and cyclo([Phe4pcCCA][Ala(1-bicyclo(1.1.1)pentyl)][Phe(4-COOH)]G[Pro(cis-4-F)][Trp(βS-Me,4-F)][Aib]SW[d(αMeD)][aThr]Q[Dab]G[dPro(4R-(4-pyridylmethyl))]) (ring closure inferred) [SEQ ID NO 334] are within 1.5-fold of each other in “MRC5 IC50” value: 0.019 nM for the first, 0.022 nM for the second.

Going from cyclo([Phe4pcCCA][Ala(1-bicyclo(1.1.1)pentyl)][Phe(4-COOH)]G[Pro(cis-4-F)][Trp(βS-Me,4-F)][Aib]SW[d(αMeD)][Ala(pyrimidin-5-yl)]Q[Dab]G[dPro(4R-(4-pyridylmethyl))]) (ring closure inferred) [SEQ ID NO 335] to cyclo([Bip(4'-COOH)][4Pal][Phe(4-COOH)]G[Pro(cis-4-F)][Trp(βS-Me,4-F)][Aib]SW[d(αMeD)][aThr]Q[Dab]G[dPro(4R-(4-pyridylmethyl))]) (ring closure inferred) [SEQ ID NO 359], the “MRC5 IC50” value falls from 0.022 nM to 0.011 nM (2-fold).
